Experimental data: patent US20040171105

Key:
[1] = molecular target: GST fusion form of full-length human cIAP1, Q13490
[2] = molecular target: GST fusion form of full-length human XIAP, P98170
[3] = molecular target: T1, GST fusion form of full-length Drosophila DIAP1, Q24306
T1 chain: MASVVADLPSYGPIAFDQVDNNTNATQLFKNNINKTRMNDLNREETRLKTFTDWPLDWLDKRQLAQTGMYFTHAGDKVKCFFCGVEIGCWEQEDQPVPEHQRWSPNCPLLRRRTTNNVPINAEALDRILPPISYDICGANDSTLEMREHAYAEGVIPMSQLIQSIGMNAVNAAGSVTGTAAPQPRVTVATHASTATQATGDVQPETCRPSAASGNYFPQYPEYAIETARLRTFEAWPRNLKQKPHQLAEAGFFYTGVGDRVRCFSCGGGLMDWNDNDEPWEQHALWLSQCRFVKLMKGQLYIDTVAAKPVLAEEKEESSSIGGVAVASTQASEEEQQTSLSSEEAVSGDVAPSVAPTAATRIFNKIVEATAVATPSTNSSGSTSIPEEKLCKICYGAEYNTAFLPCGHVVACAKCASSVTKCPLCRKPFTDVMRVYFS

[4] = molecular target: mutant cIAP1 (recombinant cIAP1 mutated at the three preferred Omi cleavage sites, GST fusion) [GST: P08515]
[5] = molecular target: GST fusion form of full-length human cIAP2, Q13489
[6] = molecular target: T2, Livin α (human, N-terminal hexa-His tagged), Q96CA5
T2 chain: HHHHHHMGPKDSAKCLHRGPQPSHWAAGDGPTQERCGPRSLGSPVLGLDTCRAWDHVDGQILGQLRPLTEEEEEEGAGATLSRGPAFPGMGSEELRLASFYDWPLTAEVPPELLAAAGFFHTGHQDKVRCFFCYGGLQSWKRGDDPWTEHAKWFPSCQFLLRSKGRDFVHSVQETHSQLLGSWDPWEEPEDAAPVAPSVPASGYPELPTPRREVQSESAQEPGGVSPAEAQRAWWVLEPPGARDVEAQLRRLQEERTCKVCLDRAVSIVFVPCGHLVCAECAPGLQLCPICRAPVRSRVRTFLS

[7] = molecular target: T3, Smac (purified recombinant), Q9NR28
T3 chain: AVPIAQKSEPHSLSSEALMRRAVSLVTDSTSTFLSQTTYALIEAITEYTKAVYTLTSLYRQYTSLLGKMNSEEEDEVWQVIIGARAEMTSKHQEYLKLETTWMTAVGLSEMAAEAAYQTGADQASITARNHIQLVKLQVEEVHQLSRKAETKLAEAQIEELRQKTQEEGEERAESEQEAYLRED

[8] = molecular target: T4, Livin β (human, N-terminal hexa-His tagged), Q96CA5
T4 chain: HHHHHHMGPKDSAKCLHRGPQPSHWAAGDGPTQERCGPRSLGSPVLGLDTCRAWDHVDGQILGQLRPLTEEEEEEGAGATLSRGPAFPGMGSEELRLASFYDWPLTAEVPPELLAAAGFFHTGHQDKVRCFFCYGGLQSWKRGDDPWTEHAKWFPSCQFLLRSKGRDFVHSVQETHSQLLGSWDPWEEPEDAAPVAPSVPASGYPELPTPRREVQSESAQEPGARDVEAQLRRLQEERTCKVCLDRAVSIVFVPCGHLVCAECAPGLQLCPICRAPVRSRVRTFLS

Chain of GST fusion form of full-length human cIAP1, Q13490 (Q13490 whole entry, the tested form may be a part): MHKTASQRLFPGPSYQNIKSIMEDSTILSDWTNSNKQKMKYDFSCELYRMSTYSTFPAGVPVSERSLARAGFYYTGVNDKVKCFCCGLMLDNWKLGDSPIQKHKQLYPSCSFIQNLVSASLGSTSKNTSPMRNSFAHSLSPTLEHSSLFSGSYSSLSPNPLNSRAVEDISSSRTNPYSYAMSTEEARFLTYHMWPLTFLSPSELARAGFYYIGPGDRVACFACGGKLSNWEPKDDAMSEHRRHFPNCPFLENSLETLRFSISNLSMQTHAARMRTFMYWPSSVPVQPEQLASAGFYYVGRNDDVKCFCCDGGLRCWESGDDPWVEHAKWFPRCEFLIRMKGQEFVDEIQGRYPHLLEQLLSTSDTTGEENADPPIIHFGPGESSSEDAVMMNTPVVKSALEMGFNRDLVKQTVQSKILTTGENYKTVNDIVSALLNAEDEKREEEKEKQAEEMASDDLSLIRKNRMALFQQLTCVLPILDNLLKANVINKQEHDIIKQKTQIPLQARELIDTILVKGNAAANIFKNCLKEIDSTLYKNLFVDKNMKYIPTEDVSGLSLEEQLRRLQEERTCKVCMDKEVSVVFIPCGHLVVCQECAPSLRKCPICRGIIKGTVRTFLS
Chain of GST fusion form of full-length human cIAP2, Q13489 (Q13489 whole entry, the tested form may be a part): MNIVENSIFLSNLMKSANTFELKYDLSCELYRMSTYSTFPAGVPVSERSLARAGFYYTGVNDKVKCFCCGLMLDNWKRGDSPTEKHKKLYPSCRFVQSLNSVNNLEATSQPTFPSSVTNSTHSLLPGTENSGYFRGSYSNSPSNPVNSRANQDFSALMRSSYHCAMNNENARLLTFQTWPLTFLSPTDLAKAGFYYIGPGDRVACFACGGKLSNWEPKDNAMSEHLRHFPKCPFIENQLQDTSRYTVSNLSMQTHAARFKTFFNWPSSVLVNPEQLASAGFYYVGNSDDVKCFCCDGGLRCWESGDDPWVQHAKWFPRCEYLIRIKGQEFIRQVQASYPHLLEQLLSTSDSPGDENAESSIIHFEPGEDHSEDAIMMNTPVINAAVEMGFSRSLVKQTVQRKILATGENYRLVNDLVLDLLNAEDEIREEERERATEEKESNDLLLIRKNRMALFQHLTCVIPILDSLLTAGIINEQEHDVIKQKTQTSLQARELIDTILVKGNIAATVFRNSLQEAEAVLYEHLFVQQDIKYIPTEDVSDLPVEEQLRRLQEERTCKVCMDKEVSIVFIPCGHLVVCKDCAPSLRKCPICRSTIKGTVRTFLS
Chain of GST fusion form of full-length human XIAP, P98170 (P98170 whole entry, the tested form may be a part): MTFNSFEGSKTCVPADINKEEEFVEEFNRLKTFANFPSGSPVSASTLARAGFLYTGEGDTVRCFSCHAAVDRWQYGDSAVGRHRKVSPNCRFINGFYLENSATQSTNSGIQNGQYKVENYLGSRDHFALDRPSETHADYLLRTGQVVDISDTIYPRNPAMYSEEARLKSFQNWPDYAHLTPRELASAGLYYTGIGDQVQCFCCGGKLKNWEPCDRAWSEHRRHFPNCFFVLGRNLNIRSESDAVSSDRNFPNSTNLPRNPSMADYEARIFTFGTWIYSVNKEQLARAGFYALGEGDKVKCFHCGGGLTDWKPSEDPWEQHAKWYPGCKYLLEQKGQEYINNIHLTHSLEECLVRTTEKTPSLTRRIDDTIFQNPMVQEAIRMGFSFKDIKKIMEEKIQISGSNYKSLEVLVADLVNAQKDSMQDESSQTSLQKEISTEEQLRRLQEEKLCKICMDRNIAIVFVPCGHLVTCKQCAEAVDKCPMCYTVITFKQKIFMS
Chain of Survivin, O15392 (O15392 whole entry, looked up): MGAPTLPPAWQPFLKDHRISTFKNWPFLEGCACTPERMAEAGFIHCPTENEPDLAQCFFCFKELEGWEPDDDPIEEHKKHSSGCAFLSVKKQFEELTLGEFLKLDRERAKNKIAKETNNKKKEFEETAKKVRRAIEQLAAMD

B1: endogenous caspase-9 of HeLa S100 extract, activated by dATP and cytochrome c (protein)
chain: MDEADRRLLRRCRLRLVEELQVDQLWDALLSRELFRPHMIEDIQRAGSGSRRDQARQLIIDLETRGSQALPLFISCLEDTGQDMLASFLRTNRQAAKLSKPTLENLTPVVLRPEIRKPEVLRPETPRPVDIGSGGFGDVGALESLRGNADLAYILSMEPCGHCLIINNVNFCRESGLRTRTGSNIDCEKLRRRFSSLHFMVEVKGDLTAKKMVLALLELAQQDHGALDCCVVVILSHGCQASHLQFPGAVYGTDGCPVSVEKIVNIFNGTSCPSLGGKPKLFFIQACGGEQKDHGFEVASTSPEDESPGSNPEPDATPFQEGLRTFDQLDAISSLPTPSDIFVSYSTFPGFVSWRDPKSGSWYVETLDDIFEQWAHSEDLQSLLLRVANAVSVKGIYKQMPGCFNFLRKKLFFKTS
B1 was tested. Which “caspase activity in HeLa extracts (cleavage of 35S-labeled procaspase-3)” value [1] did it give?
The value was “Caspase activity was completely inhibited by 250 nM of cIAP1”.

B2: OmiΔPDZ (Omi with the PDZ domain deleted, C-terminal hexa-His tagged) (protein)
chain: AVPSPPPASPRSQYNFIADVVEKTAPAVVYIEILDRHPFLGREVPISNGSGFVVAADGLIVTNAHVVADRRRVRVRLLSGDTYEAVVTAVDPVADIATLRIQTKEPLPTLPLGRSADVRQGEFVVAMGSPFALQNTITSGIVSSAQRPARDLGLPQTNVEYIQTDAAIDFGNSGGPLVNLDGEVIGVNTMKVTAGISFAIPSDRLREFLHRGEKKNSSSGISGSQHHHHHH
B2 was tested. Which “cleavage of cIAP1 in vitro (SDS-PAGE, silver staining)” value [1] did it give?
Its value is “The Omi?PDZ at 2.5 nM cleaved the full-length cIAP1 molecules into smaller fragments, whereas the Omi WT enzyme, at the same concentration, still left some uncleaved full-length cIAP1 molecules”.

B3: OmiΔ8 (Omi without the AVPS tetrapeptide, C-terminal hexa-His tagged) (protein)
chain: PPPASPRSQYNFIADVVEKTAPAVVYIEILDRHPFLGREVPISNGSGFVVAADGLIVTNAHVVADRRRVRVRLLSGDTYEAVVTAVDPVADIATLRIQTKEPLPTLPLGRSADVRQGEFVVAMGSPFALQNTITSGIVSSAQRPARDLGLPQTNVEYIQTDAAIDFGNSGGPLVNLDGEVIGVNTMKVTAGISFAIPSDRLREFLHRGEKKNSSSGISGSQRRYIGVMMLTLSPSILAELQLREPSFPDVQHGVLIHKVILGSPAHRAGLRPGDVILAIGEQMVQNAEDVYEAVRTQSQLAVQIRRGRETLTLYVTPEVTEHHHHHH
What does the source list for B3?
cleavage of cIAP1 in vitro (SDS-PAGE, silver staining) [1]: A concentration (25 nM), 10-fold higher than the wild-type, was required to cleave IAP; proteolytic efficiency against Omi WT [1]: The proteolytic efficiency of Omi?8 was, therefore, 10-fold lower than that of Omi WT regarding cIAP1 cleavage

B4: Omi WT (wild-type mature Omi/HtrA2, C-terminal hexa-His tagged, recombinant from E. coli) (protein)
chain: AVPSPPPASPRSQYNFIADVVEKTAPAVVYIEILDRHPFLGREVPISNGSGFVVAADGLIVTNAHVVADRRRVRVRLLSGDTYEAVVTAVDPVADIATLRIQTKEPLPTLPLGRSADVRQGEFVVAMGSPFALQNTITSGIVSSAQRPARDLGLPQTNVEYIQTDAAIDFGNSGGPLVNLDGEVIGVNTMKVTAGISFAIPSDRLREFLHRGEKKNSSSGISGSQRRYIGVMMLTLSPSILAELQLREPSFPDVQHGVLIHKVILGSPAHRAGLRPGDVILAIGEQMVQNAEDVYEAVRTQSQLAVQIRRGRETLTLYVTPEVTEHHHHHH
Which “cleavage of IAP in vitro” value [2] does the source give for B4 here?
The value was “the wild-type Omi cleaved various forms of IAP proteins, including cIAP1, cIAP2, XIAP, Livin α and Livin β”.

And the “cleavage of IAP in vitro” value [3]?
The value was “As shown in FIG. 1A, Omi WT cleaved IAP proteins”.

And the “cleavage in vitro (Western blot, anti-Survivin; 25 nM Survivin, 150 nM Omi WT)” value (Survivin, O15392)?
Its value is “This cleavage activity, however, was absent for Survivin”.

And the “IAP cleavage and caspase reactivation in HeLa S100 extracts” value [4]?
The value was “Omi at 75 or 10 nM resulted in similar amount IAP cleavage and caspase reactivation for mutant and wild-type cIAP1, respectively”.

And the “resistance to Omi protease against wild-type cIAP1” value [4]?
Its value is “mutant cIAP1 is ˜7.5-fold more resistant to Omi protease”.

And the “cleavage of IAP in vitro” value [5]?
The value was “the wild-type Omi cleaved various forms of IAP proteins, including cIAP1, cIAP2, XIAP, Livin α and Livin β”.

And the “cleavage of Livin in vitro (Western blot, anti-Livin)” value [6]?
The value was “Omi WT cleaved Livin α and Livin β”.

And the “IAP cleavage and caspase reactivation in HeLa S100 extracts” value [1]?
The value was “Omi at 75 or 10 nM resulted in similar amount IAP cleavage and caspase reactivation for mutant and wild-type cIAP1, respectively”.

What about the “cleavage of cIAP1 in vitro (SDS-PAGE, silver staining)” value [1] of the same protein?
Its value is “Wild-type Omi (Omi WT) protein at 2.5 nM (nano Molar) almost completely cleaved 50 nM cIAP1”.

What about the “proteolytic processing of Smac by Omi” value [7] of the same protein?
The value was “Smac, therefore, was not cleavable by Omi”.

And the “cleavage of Livin in vitro (Western blot, anti-Livin)” value [8]?
The value was “Omi WT cleaved Livin α and Livin β”.

B5: Omi SA (protease dead mutant Omi S306→Ala, C-terminal hexa-His tagged) (protein)
chain: AVPSPPPASPRSQYNFIADVVEKTAPAVVYIEILDRHPFLGREVPISNGSGFVVAADGLIVTNAHVVADRRRVRVRLLSGDTYEAVVTAVDPVADIATLRIQTKEPLPTLPLGRSADVRQGEFVVAMGSPFALQNTITSGIVSSAQRPARDLGLPQTNVEYIQTDAAIDFGNAGGPLVNLDGEVIGVNTMKVTAGISFAIPSDRLREFLHRGEKKNSSSGISGSQRRYIGVMMLTLSPSILAELQLREPSFPDVQHGVLIHKVILGSPAHRAGLRPGDVILAIGEQMVQNAEDVYEAVRTQSQLAVQIRRGRETLTLYVTPEVTEHHHHHH
With B5 as the protein, how does the “cleavage of cIAP1 in vitro (Western blot, anti-GST)” value [1] read?
The value was “Omi WT cleaved the cIAP1, but the Omi SA did not”.
